The values below come from article doi:10.1101/124255.

The experiment has as its target dynein-dynactin-BicD2N (DDB) complex (mouse | rat (endogenous in rat brain cytosol)) (UniProt Q921C5). Nature of the experiment: multicolor single-molecule TIRF microscopy.
Chain of UniProt Q921C5 (Q921C5 whole entry, looked up, one chain of several): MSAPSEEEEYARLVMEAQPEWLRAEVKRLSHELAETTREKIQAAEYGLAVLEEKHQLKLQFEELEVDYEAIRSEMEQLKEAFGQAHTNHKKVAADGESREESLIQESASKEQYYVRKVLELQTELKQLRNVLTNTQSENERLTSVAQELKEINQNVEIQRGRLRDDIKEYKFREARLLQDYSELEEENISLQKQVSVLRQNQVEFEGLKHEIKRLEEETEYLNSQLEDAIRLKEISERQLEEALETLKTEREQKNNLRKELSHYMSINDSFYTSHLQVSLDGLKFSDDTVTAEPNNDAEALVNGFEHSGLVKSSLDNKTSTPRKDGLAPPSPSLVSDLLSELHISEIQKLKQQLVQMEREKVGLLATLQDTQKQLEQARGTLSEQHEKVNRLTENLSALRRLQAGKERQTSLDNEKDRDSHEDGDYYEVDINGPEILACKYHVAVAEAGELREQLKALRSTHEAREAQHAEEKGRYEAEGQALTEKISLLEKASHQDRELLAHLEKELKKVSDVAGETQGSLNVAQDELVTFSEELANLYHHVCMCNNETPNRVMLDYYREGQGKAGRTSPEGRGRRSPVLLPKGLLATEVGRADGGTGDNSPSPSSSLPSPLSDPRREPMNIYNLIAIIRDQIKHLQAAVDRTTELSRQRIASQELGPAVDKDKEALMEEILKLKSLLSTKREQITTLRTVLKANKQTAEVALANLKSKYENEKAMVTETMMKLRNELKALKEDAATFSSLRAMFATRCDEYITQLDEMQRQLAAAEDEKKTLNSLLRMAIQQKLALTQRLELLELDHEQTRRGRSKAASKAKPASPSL

B1: Rattus norvegicus LIS1 (PAFAH1b1), StrepII-SNAPf tagged, wild type (natural protein)
chain: MVLSQRQRDELNRAIADYLRSNGYEEAYSVFKKEAELDMNEELDKKYAGLLEKKWTSVIRLQKKVMELESKLNEAKEEFTSGGPLGQKRDPKEWIPRPPEKYALSGHRSPVTRVIFHPVFSVMVSASEDATIKVWDYETGDFERTLKGHTDSVQDISFDHSGKLLASCSADMTIKLWDFQGFECIRTMHGHDHNVSSVAIMPNGDHIVSASRDKTIKMWEVQTGYCVKTFTGHREWVRMVRPNQDGTLIASCSNDQTVRVWVVATKECKAELREHEHVVECISWAPESSYSSISEATGSETKKSGKPGPFLLSGSRDKTIKMWDVSTGMCLMTLVGHDNWVRGVLFHSGGKFILSCADDKTLRVWDYKNKRCMKTLNAHEHFVTSLDFHKTAPYVVTGSVDQTVKVWECR
modifications: SNAP dye (SNAP-Alexa 647 or SNAP-Surface 488) covalently on the SNAP tag
Regarding B1, the percent of DDB-L complexes with both 647- and 488-SNAP LIS1 was 8%; the percent of DDB-L complexes with two LIS1 dimers is < 24%; the percent of diffusive DDB complexes with a bound LIS1 turned out to be 34%; the percent of processive DDB complexes with a bound LIS1 was 18%. The same molecule had a stoichiometry N (LIS1 dimer per DDB) of 1 and a stoichiometry N (LIS1 dimers per DDB) of 2.
